US20180044374A1

Columns and labels:
[1] = molecular target: IgG1 monoclonal antibody (probe molecule, Example 1); experiment: SPR (Biacore), ligand on CM5 chip, IgG1 mAb as probe
[2] = molecular target: human polyclonal IgG (Gammanorm) (human); experiment: dynamic binding capacity, 6 min residence; ligand […] on agarose beads
[3] = molecular target: human polyclonal IgG (Gammanorm) (human); experiment: as above; remark: listed apart in the source
[4] = molecular target: human polyclonal IgG (Gammanorm) (human); experiment: dynamic binding capacity, 6 min residence; ligand 7.2 mg/ml on agarose beads
[5] = molecular target: human polyclonal IgG (Gammanorm) (human); experiment: dynamic binding capacity, measured after six 4 h cycles in 1.0 M NaOH; ligand […] on agarose beads
[6] = molecular target: human polyclonal IgG (Gammanorm) (human); experiment: dynamic binding capacity, measured after 24 h cumulative exposure to 0.5 M NaOH; ligand […] on agarose beads
[7] = molecular target: human polyclonal IgG (Gammanorm) (human); experiment: dynamic binding capacity, measured after 24 h cumulative exposure to 0.5 M NaOH; ligand 7.2 mg/ml on agarose beads
[8] = molecular target: human polyclonal IgG (Gammanorm) (human); experiment: dynamic binding capacity; matrix C3, ligand […]
[9] = molecular target: human polyclonal IgG (Gammanorm) (human); experiment: dynamic binding capacity; matrix A20, ligand […]
[10] = molecular target: human polyclonal IgG (Gammanorm) (human); experiment: dynamic binding capacity; matrix A33, ligand […]; details: ligand content 6.5 mg/ml
[11] = molecular target: human polyclonal IgG (Gammanorm) (human); experiment: dynamic binding capacity; matrix A38, ligand […]
[12] = molecular target: human polyclonal IgG (Gammanorm) (human); experiment: dynamic binding capacity; matrix A54, ligand […]; details: ligand content 6.7 mg/ml
[13] = molecular target: human polyclonal IgG (Gammanorm) (human); experiment: dynamic binding capacity; matrix A56, ligand […]; details: ligand content 7.1 mg/ml
[14] = molecular target: human polyclonal IgG (Gammanorm) (human); experiment: dynamic binding capacity; matrix H31, ligand […]
[15] = molecular target: human polyclonal IgG (Gammanorm) (human); experiment: dynamic binding capacity; matrix H35, ligand […]
[16] = molecular target: human polyclonal IgG (Gammanorm) (human); experiment: dynamic binding capacity; matrix H40, ligand […]; details: ligand content 6.9 mg/ml
[17] = molecular target: human polyclonal IgG (Gammanorm) (human); experiment: dynamic binding capacity; matrix A62a, ligand […]
[18] = molecular target: human polyclonal IgG (Gammanorm) (human); experiment: dynamic binding capacity; matrix A56-2, ligand […]
[19] = molecular target: human polyclonal IgG (Gammanorm) (human); experiment: dynamic binding capacity; matrix A20, ligand 6.4 mg/ml
[20] = molecular target: human polyclonal IgG (Gammanorm) (human); experiment: dynamic binding capacity; matrix A56, ligand 7.9 mg/ml
[21] = molecular target: human polyclonal IgG (Gammanorm) (human); experiment: dynamic binding capacity; matrix C3, ligand 11.9 mg/ml
[22] = molecular target: human polyclonal IgG (Gammanorm) (human); experiment: dynamic binding capacity; matrix C3, ligand 15.1 mg/ml
[23] = molecular target: human polyclonal IgG (Gammanorm) (human); experiment: dynamic binding capacity; matrix C4, ligand 11.2 mg/ml
[24] = molecular target: human polyclonal IgG (Gammanorm) (human); experiment: dynamic binding capacity; matrix C4, ligand 15.2 mg/ml
[25] = molecular target: human polyclonal IgG (Gammanorm) (human); experiment: dynamic binding capacity; matrix S9, ligand 18.4 mg/ml
[26] = molecular target: human polyclonal IgG (Gammanorm) (human); experiment: dynamic binding capacity; matrix A20, ligand 21.1 mg/ml
[27] = molecular target: human polyclonal IgG (Gammanorm) (human); experiment: dynamic binding capacity; matrix A38, ligand 11.6 mg/ml
[28] = molecular target: human polyclonal IgG (Gammanorm) (human); experiment: dynamic binding capacity; matrix A38, ligand 15.8 mg/ml
[29] = molecular target: human polyclonal IgG (Gammanorm) (human); experiment: dynamic binding capacity; matrix A54, ligand 21.1 mg/ml
[30] = molecular target: human polyclonal IgG (Gammanorm) (human); experiment: dynamic binding capacity; matrix A56, ligand 15.2 mg/ml
[31] = molecular target: human polyclonal IgG (Gammanorm) (human); experiment: dynamic binding capacity; matrix A56, ligand 19.2 mg/ml
[32] = molecular target: human polyclonal IgG (Gammanorm) (human); experiment: dynamic binding capacity; matrix A62a, ligand 9.6 mg/ml
[33] = molecular target: human polyclonal IgG (Gammanorm) (human); experiment: dynamic binding capacity; matrix A63b, ligand 6.4 mg/ml
[34] = molecular target: human polyclonal IgG (Gammanorm) (human); experiment: dynamic binding capacity; matrix H31, ligand 20.0 mg/ml
[35] = molecular target: human polyclonal IgG (Gammanorm) (human); experiment: dynamic binding capacity; matrix H35, ligand 12.3 mg/ml
[36] = molecular target: human polyclonal IgG (Gammanorm) (human); experiment: dynamic binding capacity; matrix H35, ligand 20.3 mg/ml
[37] = molecular target: human polyclonal IgG (Gammanorm) (human); experiment: dynamic binding capacity; matrix H40, ligand 23.0 mg/ml
[38] = molecular target: human polyclonal IgG (Gammanorm) (human); experiment: dynamic binding capacity; matrix P10, ligand 19.0 mg/ml
[39] = molecular target: human polyclonal IgG (Gammanorm) (human); experiment: pH 6-3 citrate gradient elution from column, peak 1; ligand […]
[40] = molecular target: human polyclonal IgG (Gammanorm) (human); experiment: pH 6-3 citrate gradient elution from column, peak 2; ligand […]
[41] = molecular target: human polyclonal IgG (Gammanorm) (human); experiment: dynamic binding capacity; matrix A63b, ligand 10.6 mg/ml
[42] = molecular target: human polyclonal IgG (Gammanorm) (human); experiment: dynamic binding capacity; matrix A63b, ligand 16.7 mg/ml
[43] = molecular target: human polyclonal IgG (Gammanorm) (human); experiment: dynamic binding capacity; matrix A56-2, ligand 12.5 mg/ml
[44] = molecular target: human polyclonal IgG (Gammanorm) (human); experiment: dynamic binding capacity; matrix A56-2, ligand 19.2 mg/ml
[45] = molecular target: human polyclonal IgG (Gammanorm) (human); experiment: dynamic binding capacity, 6 min residence; ligand 10.8 mg/ml on agarose beads
[46] = molecular target: human polyclonal IgG (Gammanorm) (human); experiment: dynamic binding capacity, measured after 24 h cumulative exposure to 0.5 M NaOH; ligand 10.8 mg/ml on agarose beads

Substance: Zvar(Q9A, N11E, Q40V, A42K, N43A, L44I)1 (designed binder)
- Kd [1]: 1.07 nM
- koff [1]: 0.000437 s⁻¹
- kon [1]: 410000 M⁻¹ s⁻¹

Substance: Zvar(Q9A, N11E, Q40V, A42K, N43A, L44I)4 with an additional N-terminal cysteine (Examples 4 and 5) (designed binder)
- Initial IgG capacity Qb10 [2]: 56.3 mg/mL
- Initial IgG capacity Qb10 [3]: 60.3 mg/mL
- Initial IgG capacity Qb10 [4]: 49 mg/mL
- Remaining IgG capacity Qb10 after six 4 h cycles [5]: 56 mg/mL
- Remaining IgG capacity Qb10 after six 4 h cycles [6]: 53.6 mg/mL
- Remaining IgG capacity Qb10 after six 4 h cycles [7]: 44.2 mg/mL

Substance: Zvar(Q9A, N11E, Q40V, A42K, N43A, L44I)6 (designed binder)
- Qb10% 2.4 min [8]: 48 mg/mL
- Qb10% 6 min [8]: 59 mg/mL
- Qb10% 2.4 min [9]: 38 mg/mL
- Qb10% 6 min [9]: 64 mg/mL
- Qb10% 2.4 min [10]: 44 mg/mL
- Qb10% 6 min [10]: 53 mg/mL
- Qb10% 2.4 min [11]: 47 mg/mL
- Qb10% 6 min [11]: 57 mg/mL
- Qb10% 2.4 min [12]: 38 mg/mL
- Qb10% 6 min [12]: 46 mg/mL
- Qb10% 2.4 min [13]: 48 mg/mL
- Qb10% 6 min [13]: 57 mg/mL
- Qb10% 2.4 min ([14]; ligand content 6.5 mg/ml): 37 mg/mL
- Qb10% 6 min ([14]; ligand content 6.5 mg/ml): 38 mg/mL
- Qb10% 2.4 min ([14]; ligand content 10.4 mg/ml): 50 mg/mL
- Qb10% 6 min ([14]; ligand content 10.4 mg/ml): 61 mg/mL
- Qb10% 2.4 min [15]: 36 mg/mL
- Qb10% 6 min [15]: 49 mg/mL
- Qb10% 2.4 min [16]: 50 mg/mL
- Qb10% 6 min [16]: 56 mg/mL
- Qb10% 2.4 min [17]: 62 mg/mL
- Qb10% 6 min [17]: 84 mg/mL
- Qb10% 2.4 min [18]: 50 mg/mL
- Qb10% 6 min [18]: 58 mg/mL
- Qb10% 2.4 min [19]: 41 mg/mL
- Qb10% 6 min [19]: 56 mg/mL
- Qb10% 2.4 min [20]: 47 mg/mL
- Qb10% 6 min [20]: 55 mg/mL
- Qb10% 2.4 min [21]: 51 mg/mL
- Qb10% 6 min [21]: 73 mg/mL
- Qb10% 2.4 min [22]: 43 mg/mL
- Qb10% 6 min [22]: 61 mg/mL
- Qb10% 2.4 min [23]: 62 mg/mL
- Qb10% 6 min [23]: 74 mg/mL
- Qb10% 2.4 min [24]: 57 mg/mL
- Qb10% 6 min [24]: 82 mg/mL
- Qb10% 2.4 min [25]: 56 mg/mL
- Qb10% 6 min [25]: 75 mg/mL
- Qb10% 2.4 min [26]: 44 mg/mL
- Qb10% 6 min [26]: 43 mg/mL
- Qb10% 2.4 min [27]: 48 mg/mL
- Qb10% 6 min [27]: 72 mg/mL
- Qb10% 2.4 min [28]: 36 mg/mL
- Qb10% 6 min [28]: 62 mg/mL
- Qb10% 2.4 min [29]: 38 mg/mL
- Qb10% 6 min [29]: 65 mg/mL
- Qb10% 2.4 min [30]: 48 mg/mL
- Qb10% 6 min [30]: 76 mg/mL
- Qb10% 2.4 min [31]: 55 mg/mL
- Qb10% 6 min [31]: 80 mg/mL
- Qb10% 2.4 min [32]: 56 mg/mL
- Qb10% 6 min [32]: 72 mg/mL
- Qb10% 2.4 min [33]: 42 mg/mL
- Qb10% 6 min [33]: 46 mg/mL
- Qb10% 2.4 min [34]: 31 mg/mL
- Qb10% 6 min [34]: 52 mg/mL
- Qb10% 2.4 min [35]: 31 mg/mL
- Qb10% 6 min [35]: 54 mg/mL
- Qb10% 2.4 min [36]: 20 mg/mL
- Qb10% 6 min [36]: 43 mg/mL
- Qb10% 2.4 min [37]: 41 mg/mL
- Qb10% 6 min [37]: 65 mg/mL
- Qb10% 6 min [38]: 76 mg/mL
- Elution pH [39]: 4.24 pH
- Elution pH [40]: 3.81 pH
- Qb10% 2.4 min [41]: 49 mg/mL
- Qb10% 6 min [41]: 60 mg/mL
- Qb10% 2.4 min [42]: 53 mg/mL
- Qb10% 6 min [42]: 69 mg/mL
- Qb10% 2.4 min [43]: 59 mg/mL
- Qb10% 6 min [43]: 72 mg/mL
- Qb10% 2.4 min [44]: 61 mg/mL
- Qb10% 6 min [44]: 82 mg/mL

Substance: Zvar(Q9A, N11K, H18K, D37E, A42R)4 with an additional N-terminal cysteine (Example 4) (designed binder)
- Initial IgG capacity Qb10 [45]: 56.9 mg/mL
- Remaining IgG capacity Qb10 after six 4 h cycles [46]: 52.5 mg/mL
